From the DeepSol protein solubility set

Experiment: soluble on expression in E. coli; label from the status in PepcDB or PDB records
In the case of “MGSSHHHHHHSSGLVPRGSKKKKEMPFPNKKIELGDKLSESIRSFSTITDTEIIIGICRKNIPGWKEINESYIEVKQIFSGLTNQLFVVSIVNESMSLSLKHPRILFRIYGKHVGKFYDSKVELDVFRYLSNINIAPNIIADFPEGRIEEFIDGEPLTTKQLQLTHICVEVAKNMGSLHIINSKRADFPSRFDKEPILFKRIYLWREEAKIQVSKNNFQIDKELYSKILEEIDQLEELIMGGEKFSMERALELKLYSPAFSLVFAHNDLQENNLLQTQNNIRMIDYEYSAINFAGADIANYFCEYIYDYCSEKQPYFKFKYEDYPCEELRKLFISVYLSQTLQEQVMPSQQIVHIMTKAVEVFTLISHITWGLWSIARTPGYQPNSVEFDFTEYANTRFTHYLQKKKELIDQGILPLNSWLFNL”, the “soluble on expression in E. coli” value is reported as “soluble”.
For “MGSSHHHHHHSSGLVPRGSMAGVDPFTGNSAYRSAASKTMNIYFPKKEAVTFDQANPTQILGKLKELNGTAPEEKKLTEDDLILLEKILSLICNSSSEKPTVQQLQILWKAINCPEDIVFPALDILRLSIKHPSVNENFCNEKEGAQFSSHLINLLNPKGKPANQLLALRTFCNCFVGQAGQKLMMSQRESLMSHAIELKSGSNKNIHIALATLALNYSVCFHKDHNIEGKAQCLSLISTILEVVQDLEATFRLLVALGTLISDDSNAVQLAKSLGVDSQIKKYSSVSEPAKVSECCRFILNLL”, the “soluble on expression in E. coli” value was “soluble”.
For “MGSSHHHHHHSSGRENLYFQGHMPCQPACPVSADTWAPSAVPDDYRYADLHLPQQVGQASLAAECAVAISYNGLNQAVMMASPEDIEDFVRGFSLSSGFVESIDDIYEIRVSGQGESLHAEVEISSRAFWNLKRQRRQLAGTSGCGLCGVEALEQALPQLPERSPQALPPAAHLGALRQRIEQAQRLARHSGALHAALYFDGHGELRLCREDIGRHNALDKLIGALHRQGLDAARGFAVVTSRCSLELIHKAVRAGIGTLVSLSAPTALTVQWARRHQLNLIHQPHHNAPRVYSPAPAATE”, the “soluble on expression in E. coli” value was “soluble”.
For “MGSVRKASAWLGLVDDNDDERYYDDDYAEGQESGEAWVTDPRVKVASETAEEKGRRIGTVTPDSFRDARGIGELFRDGVPVIINLTAMEPTDAKRVVDFAAGLTFGLRGTIERVATRVFLLTPANTEIVSGEAAGRPTDGFFNQSLEHHHHHH”, the “soluble on expression in E. coli” value was “not soluble”.
For “MGSVVPHYSWFSGITQFQKGKEFQFAEGQGVPIANGIPASEQKGYWYRHNRRSFKTPDGQQKQLLPRWYFYYLGTGPHAGASYGDSIEGVFWVANSQADTNTRSDIVERDPSSHEAIPTRFAPGTVLPQGFYVEGSGRS”, the “soluble on expression in E. coli” value was “soluble”.
With “MGSWSEKAFSASKLDDAIAAKFGSLPIQESTAIQIKAPEIAENGAFVPVTVATSIPGATNISIFTPANFSPMVASFDVLPRMKPEVSLRMRMAKTENLVVVVQAGGKLYRAVREVKVTIGGCGG” the “soluble on expression in E. coli” value was “soluble”.
For “MGTLWWNGTFFTMVHEGDQVEAVFTEDGKIVAIGTAEELRQRYSTRINQEMNCDGAYVYPGFVDSHLHMIGLEHHHHHH”, the “soluble on expression in E. coli” value was “not soluble”.
With “MGTYTVNVSSLNVRTGPSTSHTVLGSVNKGKTVQVVSEVQDWFKINFNGGTGYVSKDFVTKGGSAVLEHHHHHH” the “soluble on expression in E. coli” value was “not soluble”.
In the case of “MGVHSFWDIAGPTARPVRLESLEDKRMAVDASIWIYQFLKAVRDQEGNAVKNSHITGFFRRICKLLYFGIRPVFVFDGGVPVLKRETIRQRKERRQGKRESAKSTARKL”, the “soluble on expression in E. coli” value is reported as “not soluble”.
With “MGVVHDVWRATKELLEATALPWPSEEREERLAAVDRLLREREELLRKLRPPYSEEEQELGREIIVWNQEIEARLLRVCEEIRRDLRMTGAKRQANARYVHPYEQPLSFDGMFYDKRR” the “soluble on expression in E. coli” value was “not soluble”.
With “MGVVRRGSDVTSHVSSVSGKSAPCLQHFSVIRSIGRGAFGKVCIVQERKTKKYFALKYMNKRRCIEKGVAANVIRELTLLSKMSHPFIVNLWYTFQDGDYMYMVSDLLLGGDLRYHLSQQGKFAEDRAKLYLCEICLAVEYLHEMKIVHRDIKPENILLDEQGHAHLTDLNLATQLEDDQLATSYSGTRPYMAPEIYATYLEIEDGYDSRVDWWALGVCFYEMLRGRTPFEFSSRTKPEEAYVAFRESSIPYPAHWPTDLIQFINSMLKFDKEKRLVGLEAIKKHSYTERIDFKSVFEKKPSPVFIPCKEGLNCDPMYELEERILVSTPIHRRRTNHNNSSGRSSSEPQNAALVEVSKAFIDFSRHNVKIEPNGFVKLN” the “soluble on expression in E. coli” value was “not soluble”.
For “MGYIEELRKIVGTRPLILAGVGVAVIDDYGRILLQKRRDGLWGVPGGLLELGESTEEAARREVLEETGLEIGELELIDVFSGQKYFVRLPNGDQYYPVTIVYCTRDIRGGELGEDGKESLEVKFFFLHELPNELSPLFQDLVEHYFGS”, the “soluble on expression in E. coli” value was “soluble”.
For “MHATSRVAWFWRPSCQSFIRKMPCRPIVLSGPSGGGKSTILTRAMQEYPNSFAFSVSHTTRQPRAGEEHGKHYYFTEKEKMQEMIKNNEFLEFATFSGNTYGTSKKTVLEIENSGKICVLDIELQGVRNIKNSHLDARYILIRAPSIKLLEERLRARGTETEESLSKRLQHASEDLVEIEKNPTLFDKVIVNDDLERAYKEFVDLLRDDLEKTSKK”, the “soluble on expression in E. coli” value was “not soluble”.
With “MHCPFCFAVDTKVIDSRLVGEGSSVRRRRQCLVCNERFTTFEVAELVMPRVVKSNDVREPFNEEKLRSGMLRALEKRPVSSDDVEMAINHIKSQLRATGEREVPSKMIGNLVMEQLKKLDKVAYIRFASVYRSFEDIKEFGEEIARLED” the “soluble on expression in E. coli” value was “soluble”.
With “MHEFRDYYGHRVRLAFADHPFSPSPGHVWVICRYGGRWLLTDHPRRGLEFPGGKVEEGETAAEAAAREVMEETGGIVGRLEYIGQYKVEPDIVKNIYFADIAALVERGSYLETNGPVLLEALPDDIRSDQRFSYFMKDDVLSLALAKLKQRGLID” the “soluble on expression in E. coli” value was “not soluble”.
For “MHFFDTHTHLNYLQQFTGEPLSQLIDNAKQADVQKILVVAVKEADFKTIQNMTALFPDNLCYGLGLHPLYIQEHAENDLILLEQALKNRDTNCTAVAEIGLERAIPDLLTDELWAKQCHFFESQLYLAKQFNLPVNIHSRKTHDQIFTFLKRIPLSKLGVVHGFSGSYDQAKRFVDLGYKIGVGGTITYERANKTRQAIAKLPLDALVLETDSPDMPVFGFQGQPNRPERIVESFKALCTLRNEPAELIKKLTWENACQIFSLEHHHHHH”, the “soluble on expression in E. coli” value was “not soluble”.
For “MHGLQDDPDLQALLKGSQLLKVKSSSWRRERFYKLQEDCKTIWQESRKVMRSPESQLFSIEDIQEVRMGHRTEGLEKFARDIPEDRCFSIVFKDQRNTLDLIAPSPADAQHWVQGLRKIIHHSGSMDQRQK”, the “soluble on expression in E. coli” value was “soluble”.
In the case of “MHHHHHHSSGLVPRGSGMKETAAAKFERQHMDSPDLGTDDDDKAMGCQKAVSPAAETAAVSPSVDAARLEPRVEERDGFWVLKEEFRSGINPAEKVKIEKDPMKLFIEDGISDLATLSMEEVDKSKHNKDDIDVRLKWLGLFHRRKHHYGRFMMRLKLPNGVTTSEQTRYLASVIKKYGKDGCADVTTRQNWQIRGVVLPDVPEIIKGLESVGLTSLQSGMDNVRNPVGNPLAGIDPHEIVDTRPFTNLISQFVTANSRGNLSITNLPRKWNPCVIGSHDLYEHPHINDLAYMPATKNGKFGFNLLVGGFFSIKRCEEAIPLDAWVSAEDVVPVCKAMLEAFRDLGFRGNRQKCRMMWLIDELGMEAFRGEVEKRMPEQVLERASSEELVQKDWERREYLGVHPQKQQGLSFVGLHIPVGRLQADEMEELARIADVYGSGELRLTVEQNIIIPNVENSKIDSLLNEPLLKERYSPEPPILMKGLVACTGSQFCGQAIIETKARALKVTEEVQRLVSVTRPVRMHWTGCPNSCGQVQVADIGFMGCMTRDENGKPCEGADVFVGGRIGSDSHLGDIYKKAVPCKDLVPVVAEILINQFGAVPREREEAE”, the “soluble on expression in E. coli” value is reported as “soluble”.
With “MHHHHHHSSGRENLYFQGMEELIPLVNRLQDAFSALGQSCLLELPQIAVVGGQSAGKSSVLENFVGRDFLPRGSGIVTRRPLVLQLITSKAEYAEFLHCKGKKFTDFDEVRLEIEAETDRVTGMNKGISSIPINLRVYSPHVLNLTLIDLPGITKVPVGDQPPDIEYQIREMIMQFITRENCLILAVTPANTDLANSDALKLAKEVDPQGLRTIGVITKLDLMDEGTDARDVLENKLLPLRRGYVGVVNRSQKDIDGKKDIKAAMLAERKFFLSHPAYRHIADRMGTPHLQKVLNQQLTNHIRDTLPNFRNKLQGQLLS” the “soluble on expression in E. coli” value was “soluble”.
In the case of “MHHHHHHSSGRENLYFQGSEREASRLDKFKQLLAGPNTDLEELRRLSWSGIPKPVRPMTWKLLSGYLPANVDRRPATLQRKQKEYFAFIEHYYDSRNDEVHQDTYRQIHIDIPRMSPEALILQPKVTEIFERILFIWAIRHPASGYVQGINDLVTPFFVVFICEYIEAEEVDTVDVSGVPAEVLCNIEADTYWCMSKLLDGIQDNYTFAQPGIQMKVKMLEELVSRIDEQVHRHLDQHEVRYLQFAFRWMNNLLMREVPLRCTIRLWDTYQSEPDGFSHFHLYVCAAFLVRWRKEILEEKDFQELLLFLQNLPTAHWDDEDISLLLAEAYRLKFAFADAPNHYKK”, the “soluble on expression in E. coli” value is reported as “soluble”.
For “MHHHHHHSSGVDLGTENLYFQSMNITKGGLVLFSANSNSSCMELSKKIAERLGVEMGKVQVYQEPNRETRVQIQESVRGKDVFIIQTVSKDVNTTIMELLIMVYACKTSCAKSIIGVIPYFPYSKQCKMRKRGSIVSKLLASMMCKAGLTHLITMDLHQKEIQGFFNIPVDNLRASPFLLQYIQEEIPDYRNAVIVAKSPASAKRAQSFAERLRLGIAVIHGEAQDAESDLVDGRHSPPMVRSVAAIHPSLEIPMLIPKEKPPITVVGDVGGRIAIIVDDIIDDVDSFLAAAETLKERGAYKIFVMATHGLLSSDAPRRIEESAIDEVVVTNTIPHEVQKLQCPKIKTVDISMILSEAIRRIHNGESMSYLFRNIGLDD”, the “soluble on expression in E. coli” value was “soluble”.
In the case of “MHHHHHHSSGVDLGTENLYFQSNAMKHIQINPSILSADLARLGDDVKAVLAAGADNIHFDVMDNHYVPNLTFGPMVLKALRDYGITAGMDVHLMVKPVDALIESFAKAGATSIVFHPEASEHIDRSLQLIKSFGIQAGLALNPATGIDCLKYVESNIDRVLIMSVNPGFGGQKFIPAMLDKAKEISKWISSTDRDILLEIDGGVNPYNIAEIAVCGVNAFVAGSAIFNSDSYKQTIDKMRDELNKV”, the “soluble on expression in E. coli” value is reported as “soluble”.
In the case of “MHIEEKTTQLQDQQQVSITIYNENLALVRDLRHVPLEKGINKLAWCDVSAQIRPETALLRTPEKTSSIRMVEQNFDFDLLTPEKLLEKYLGRSVNVIYVNPATGAETVEAAIVLSISGGVVLKFKDRIETGTPGRIAFPDVPGSLHDHPTLSLVLDGATPGKHELELSYLTSGLSWQADYVARLDANDGRLDLSGLVTLANHSGIAYPDAHLQLVSGEVNQVTPEPPQARKMMAMVADAAEYQAVREESLSEYHLYSLPVPTTLAENQSKQITLMSVTDIPVSQEFLLRGTNAYYFSRYSNLDDKLKPVVLIQFKNEGEGLGVPLPRGTIRVYQNDSRDNLQFLGEDHIDHTAKNEEVRVKLGKATDITAMRTQTDFQQLDTPSRRFTETATDITAMRTQTDFQQLDTPSRRFTETAHQIEIHNARQEAVTIRVQEPIPGDWMMISESQPHTKSSANLVEWLVKVPTNQKTILSYRVRIKHLEHHHHHH”, the “soluble on expression in E. coli” value is reported as “not soluble”.
